Experimental data from patent US20240101667A1, “METHODS FOR IDENTIFYING LILRB-BLOCKING ANTIBODIES” (THE BOARD OF REGENTS OF THE UNIVERSITY OF TEXAS SYSTEM, priority 2020, published 2024).

Key:
Assay type in all cases: in vivo, mouse
[1] = system: MLL-AF9 AML cells expressing B3-FL or B3delICD; experiment: Immuno-competent mice transplanted with MLL-AF9 AML cells expressing B3-FL or B3delICD; conditions: versus control IgG
From the text: (§1) FIGS. 7A-N. Blocking anti-LILRB3 antibody prevents monocytic AML development. (FIG. 7A) Epitope binning of 30 high-affinity IgGs. (FIG. 7B) CFU assay of mouse MLL-AF9 AML cells in the presence of above IgGs (n=3 independent experiments). (FIG. 7C) Binding affinities of the two IgGs from bin #3. (FIG. 7D) Upper: Schematic of treatment. Lower: Percentages of GFP^+ MLL-AF9 mouse AIL cells in peripheral blood (PB), bone marrow (BM), spleen (SPL), and liver (LV) of mice transplanted with AML cells expressing B3-FL or B3delICD and injected with IgG or anti-LILRB3 #1 N297A (n=3 independent mice). (FIG. 7E) Overall survival of mice transplanted with indicated AML cells as above. (FIG. 7F) CFU assay of MLL-AF9 mouse AML cells expressing B3-FL or B3delICD in the presence of IgG or anti-LILRB3 #1 N297A (n=3 independent experiments) (FIG. 7G) Upper: Schematic of treatment. Recipient mice were injected with mouse IgG or anti-mCD8 to deplete CD8 T cells. Lower: Percentages of GFP^+ MLL-AF9 mouse AML cells in peripheral blood (PB), bone marrow (BM), spleen (SPL), and liver (LV) of mice transplanted with AML cells expressing B3-FL or B3delICD and injected with IgG or anti-LILRB3 #1 LALAPG (n=4 mice). (FIG. 7H) Survival of mice as in panel h (n=4 independent mice). (FIG. 7I) Upper: Schematic of treatment. Lower: Whole-body images of NSG mice transplanted with luciferase-expressing THP-1 cells and treated with IgG or anti-LILRB3 #1 N297A (#1NA). (FIG. 7J) Overall survival of the mice shown in panel h (n=3 independent mice). (FIG. 7K) Upper: Schematic of treatment. Lower: Whole-body images of NSG mice transplanted with luciferase-expressing Molm13 cells, injected with activated T cells, and treated with IgG or #1NA. (FIG. 7L) Luciferase signaling as a function of time in mice treated as described in panel k. (FIG. 7M) Overall survival of mice treated as described in panel k (n=3 independent mice). […] The data are presented as mean±s.e.m, and p values were calculated by two-tailed t-test except for FIG. 7E, FIG. 7H, FIG. 7J and FIG. 7M by log-rank test. […]

THP-1 cells = experiment: NSG mice xenografted with THP-1 cells
From the text: as §1, with “mice).” for “mice). (FIG. 7H) Survival of mice as in panel h (n=4 independent mice). (FIG. 7I) Upper: Schematic of treatment. Lower: Whole-body images of NSG mice transplanted with luciferase-expressing THP-1 cells and treated with IgG or anti-LILRB3 #1 N297A (#1NA). (FIG. 7J) Overall survival of the mice shown in panel h (n=3 independent mice). (FIG. 7K) Upper: Schematic of treatment. Lower: Whole-body images of NSG mice transplanted with luciferase-expressing Molm13 cells, injected with activated T cells, and treated with IgG or #1NA. (FIG. 7L) Luciferase signaling as a function of time in mice treated as described in panel k. (FIG. 7M) Overall survival of mice treated as described in panel k (n=3 independent mice).”

[2] = system: human AML cells (CD45+/CD33+); experiment: M5 AML patient-derived xenograft in NSG mice (primary transplantation)
From the text: (FIG. 8A) Upper: Schematic of treatment. NSG mice were transplanted with monocytic AML patient peripheral blood sample (depleted red blood cells) and given IgG or #1NA. […] (FIG. 8C) The percentages of human T cells in NSG mice treated as indicated in panel a (n=8 independent mice). (FIG. 8D) Overall survival of the NSG mice treated as indicated in panel a (n=8 independent mice). (FIG. 8E) Schematic of treatment. NSG mice were transplanted with monocytic AML cells (derived from BM of NSG mice engrafted with monocytic AML patient peripheral blood samples) with treatment of IgG or anti-LILRB3 #1 LALAPG. (FIG. 8F) Flow cytometry analyses of LILRB3 expression on human AML cells in the mouse bone marrow. (FIG. 8G) The percentages of human AML cells (CD45^+/CD33^+) in NSG mice after treatment of IgG or #1NA as indicated in panel e. (n=5 independent mice). (FIG. 8H) The percentages of human T cells in NSG mice treated as indicated in panel e (n=5 independent mice). (FIG. 8I), Survival of NSG mice treated as indicated in panel e (n=5 independent mice). The data are presented as mean s.e.m, and p values were calculated by two-tailed t-test except for d and i by log-rank test.
Primary human leukemia. The primary human AML samples was obtained from the University of Texas Southwestern Medical Center. […] For primary transplantation, leukemia cells isolated from donor peripheral blood was injected into irradiated NSG mice (200 cGy), and antibody or IgG was introduced intravenously 8 days after injection. For secondary transplantation, human leukemia cells from frozen BM of NSG mice that were engrafted with patient AML cells were transplanted into sublethally-irradiated NSG recipients.

B1: anti-LILRB3 #1 N297A: IgG #1 with Fc glycosylation N297A mutation, defective Fc-mediated effector functions (antibody, V domains shown)
VH: EVQLVESGGGVVQPGRSLRLSCAASGFTFSSYGMHWVRQAPGKGLEWVAFIRYDGSNKYYADSVKGRFTISRDNSKNTLYLQMNSLRAEDTAVYYCAKAGFSGWYYYGMDVWGQGTMVTVSS
VL: DIVMTQSPSSLSASVGDRLTITCRASQSISTYLNWYQQKPGKAPKLLIYGASSLQSGVPSRFSGSGSGTDFTLTISSLQPEDFATYFCQQSYGLPLTFGGGTKVDIK
For B1, the “B3del ICD AML development” value [1] was “no detectable difference”, the “development of LILRB3-expressing (B3-FL) AML” value [1] was “significantly delayed development of LILRB3-expressing AML” and the leukemia development (THP-1 cells; NSG mice, THP-1 xenograft, versus controls) was “significantly delayed leukemia development”. The “LILRB3 signaling in THP-1 cells (NF-κB target gene expression by qPCR)” value (THP-1 cells; THP-1 cells from BM of xenografted NSG mice) was “decreased”, the “percentages of human autologous T cells” value ([2]; NSG mice) was “increased the percentages of human autologous T cells” and the “AML burden in peripheral blood, bone marrow, spleen, and liver” value ([2]; versus IgG) was “significantly lower AML burden”. For the same molecule, the survival ([2]; versus control IgG) was “significant survival advantage”.
